The text below walks through data of article PMC7116892 (Science (New York, N.Y.), 2021).

The chains are these.
B1: Dic2, ODA intermediate chain (natural protein, Tetrahymena thermophila, UniProt I7M008 1-667, looked up)
chain: MPPKQTKVVASRKTVMPISRAGRAQIRRKDSNTQNNMNDQGMEDEEIDQQREGMKNQYEQLTAQELNEDMPSKMLEPKNPQAPKNITVYDYYTRKFKTDELVDQMIVHFSMDGDYIWKESNEYKTQEEIRDTKKALIKEAMRKQESEEPGANHDEEAIKQTLRNKFNYNTRECQTINPSIRERGVSTEPPPSDTICGNITQWEIFDAYYAEIMKDHQIENKKKKEVDQDKKQDQSMYSTSFKRCCKIMERMVVQNDQEDKYHDYRYYWSQGDNLEAGKNEGHLLPIWRFSNEKQRKKNVTSICWNPLYPDLFAVSLGSYDFTKQRMGLICLYSLKNTTHPEYAFNCEAGVMCLDFHPKSAALLAVGLYDGTVLVYDIRNKHKKPIYQSTVRNQKHTDPVWQVKWNPDTSKNYNFYSISSDGRVMNWILMKNKLEPEEVILLRLVGKNEEESTLIGLACGLCFDFNKFEPHIFLVGTEEGKIHKCSRAYSGQYQETYNGHLLAVYKVKWNNFHPRTFISASADWTVRIWDSKYTSQIICFDLSMMVVDAVWAPYSSTVFACATMDKVQVYDLNVDKLNKLAEQKIVKQPKLTNLSFNYKDPILLVGDSHGGVTLVKLSPNLCKSGPEIKQTEDKKAMEEFKNVKIEDYEREKMENLLAVVSKWEREDA
B5: Lc7b, roadblock ODA light chain (natural protein, Tetrahymena thermophila, UniProt Q22MV2 1-159, looked up)
chain: MIYKTSKEIQKSDQRIIQQRVENSIINNQIYQKSLKRKTSKRKVRHQANKKNFQKEMSEVEDTLNRIKTHKTVLGYLIVNSEGGVVRGAFKDEEESKNIANSIPLLTKKARSVVRDLDPTNDLVFLRIQTKLNEIMVAPDDEFSLIVIQTKGEKRDEND

Holding throughout (assay): cryo-EM structure
Experiment [1] concerns the target T1, Shulin (Q22YU3), recombinant full-length, C-terminal 2xStrep (Tetrahymena thermophila, UniProt Q22YU3 1-1200).
T1 sequence (looked up): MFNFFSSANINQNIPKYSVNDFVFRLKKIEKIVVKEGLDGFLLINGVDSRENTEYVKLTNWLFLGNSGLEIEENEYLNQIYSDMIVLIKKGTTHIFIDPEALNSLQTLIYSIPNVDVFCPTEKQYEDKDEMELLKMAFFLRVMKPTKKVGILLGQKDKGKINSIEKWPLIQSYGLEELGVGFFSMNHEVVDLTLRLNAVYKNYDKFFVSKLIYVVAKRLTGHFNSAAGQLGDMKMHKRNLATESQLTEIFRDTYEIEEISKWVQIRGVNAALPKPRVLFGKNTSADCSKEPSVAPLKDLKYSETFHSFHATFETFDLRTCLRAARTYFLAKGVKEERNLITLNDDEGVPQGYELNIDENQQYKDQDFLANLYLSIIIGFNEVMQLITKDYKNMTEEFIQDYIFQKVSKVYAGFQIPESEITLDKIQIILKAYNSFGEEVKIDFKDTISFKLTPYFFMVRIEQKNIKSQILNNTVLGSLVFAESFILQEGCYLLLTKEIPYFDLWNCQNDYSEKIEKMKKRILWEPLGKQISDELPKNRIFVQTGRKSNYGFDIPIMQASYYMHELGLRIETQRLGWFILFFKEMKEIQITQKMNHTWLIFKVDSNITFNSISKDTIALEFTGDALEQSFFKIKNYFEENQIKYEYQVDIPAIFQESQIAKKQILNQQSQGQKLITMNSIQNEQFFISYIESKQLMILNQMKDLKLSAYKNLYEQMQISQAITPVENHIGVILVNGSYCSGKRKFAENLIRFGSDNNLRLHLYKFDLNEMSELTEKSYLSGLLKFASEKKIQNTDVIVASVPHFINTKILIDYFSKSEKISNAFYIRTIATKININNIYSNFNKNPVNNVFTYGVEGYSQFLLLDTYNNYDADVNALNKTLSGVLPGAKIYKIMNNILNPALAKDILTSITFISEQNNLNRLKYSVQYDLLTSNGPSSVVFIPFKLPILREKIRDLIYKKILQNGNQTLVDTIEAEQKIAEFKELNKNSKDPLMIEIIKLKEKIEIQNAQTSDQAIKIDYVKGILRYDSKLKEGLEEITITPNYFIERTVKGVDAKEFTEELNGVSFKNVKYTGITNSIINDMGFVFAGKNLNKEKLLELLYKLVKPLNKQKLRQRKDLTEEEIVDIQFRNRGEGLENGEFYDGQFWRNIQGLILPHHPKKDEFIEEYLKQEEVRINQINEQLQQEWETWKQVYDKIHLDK

Experiment [2] deals with T2, Dic3, ODA intermediate chain (Tetrahymena thermophila, UniProt Q23FU1 1-670).
T2 sequence (looked up): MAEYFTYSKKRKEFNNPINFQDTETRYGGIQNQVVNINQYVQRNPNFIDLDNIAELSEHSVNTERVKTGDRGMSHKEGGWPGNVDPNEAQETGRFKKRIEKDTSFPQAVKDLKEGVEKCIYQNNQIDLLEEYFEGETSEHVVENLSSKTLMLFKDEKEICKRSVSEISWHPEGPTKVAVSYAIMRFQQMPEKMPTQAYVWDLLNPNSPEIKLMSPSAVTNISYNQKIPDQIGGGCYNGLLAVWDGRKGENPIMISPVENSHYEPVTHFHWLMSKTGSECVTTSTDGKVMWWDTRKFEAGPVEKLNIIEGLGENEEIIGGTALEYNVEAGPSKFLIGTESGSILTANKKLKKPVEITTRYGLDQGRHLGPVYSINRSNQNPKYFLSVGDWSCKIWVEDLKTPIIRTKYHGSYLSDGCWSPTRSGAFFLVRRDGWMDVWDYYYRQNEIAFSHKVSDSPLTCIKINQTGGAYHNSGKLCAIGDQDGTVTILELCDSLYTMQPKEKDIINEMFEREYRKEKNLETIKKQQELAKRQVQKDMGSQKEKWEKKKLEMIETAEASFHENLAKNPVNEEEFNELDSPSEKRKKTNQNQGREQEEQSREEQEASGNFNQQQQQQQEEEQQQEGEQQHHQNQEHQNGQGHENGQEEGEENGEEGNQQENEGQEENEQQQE

Experiment [3] has as its target B1.
In experiment [4] the target is B5.

Consider B1, for which the binding result in experiment [1] is on record as “binds”.

B2: Lc8f (unnamed Lc8-like protein, UniProt ID Q22R86), ODA light chain (natural protein, Tetrahymena thermophila, UniProt Q22R86 1-111, looked up)
chain: MASNQQQKEDPKEQQQQYKTFMGARVLWPPECADDILEGAIRETQDALKKFEIAREGQKIAEHLKKYMDDHFDPYWHVFFGKNFGCQAVHNKNRFIYFYIEKTAFLMYQTQ
Regarding B2, the binding result in experiment [2] and in experiment [3] was “binds” in each case.

B3: Lc8, ODA light chain (natural protein, Tetrahymena thermophila, UniProt W7XJB1 1-111, looked up)
chain: MSDSDSDEGRVVEEPLPPHIIRFNDMAQHLLKKVIRQADVLIKENPQGLEKDIALNLVKFVKSQPEFKIGDGEWQCIIGKNFGCSLTFDANVLAFFDLLPSRKSILLFKSG
B3: the binding result in experiment [2] and in experiment [3] was “binds” throughout.

B4: Lc8d, ODA light chain (natural protein, Tetrahymena thermophila, UniProt Q24CE5 1-87, looked up)
chain: MNHEPEVKATDMEEDMIKRVKEIAINAVKEYKQEKQIAHYIKYEFDKIDGYGWNCIVGRNFGSHIIHQTKKYIFFKINELCLLLWKA
For B4, the binding result in experiment [2], in experiment [3] and in experiment [1] was “binds” in each case.

As to B5, the binding result in experiment [2] and in experiment [3] was “binds” in each case.

B6: Lc8e, ODA light chain (natural protein, Tetrahymena thermophila, UniProt Q24DI9 1-93, looked up)
chain: MGDHANEQIIDMPENSEMKSMKNDAFSQAKFAVENYKFENKISSHIKKFFDEKYGPNWHCVVGKHFNAYVSYDSKNFIFFYEGQLAILLYRKG
As for B6, the binding result in experiment [2], in experiment [3] and in experiment [1] was “binds” each time.

B7: Lc9, Tctex-like ODA light chain (natural protein, Tetrahymena thermophila, UniProt A4VEB3 1-117, looked up)
chain: MGDTDKEYISEEVQKAIDDSVKQVFGIKDDSSQVTITYNKDKVNLWTQQIIDYTIRGLNKLGKHFKYCVTAILQQTNHAGISVQITAYQDTNTDGSLIQCYEINDIYAIVSVFAMAV
For B7, the binding result in experiment [2] and in experiment [3] was “binds” in each case.

B8: Lc7, roadblock ODA light chain (natural protein, Tetrahymena thermophila, UniProt I7MHB1 1-133, looked up)
chain: MAQDINADDQLKQLSALEGANGYVIFNESGIPLKRHEKSISHEKAVHIAALVSDLWNVSKKVIQRDLKTPENDIEVIRLRTKHSYEYIITQSGDFTMLAIQLCGKAIEEAKKAAAAAAAAAVVQEENKEKEKK
In the case of B8, the binding result in experiment [2], in experiment [3] and in experiment [4] was “binds” throughout.
